Laboratory results published in patent publication US20180142284, “MULTIPLEX ANALYSIS OF GENE EXPRESSION IN INDIVIDUAL LIVING CELLS” (THE GENERAL HOSPITAL CORPORATION, published 2018).

Experiments:
[1] = target: PKR dsRBD (MAGIC factor), Alexa Fluor 488-labeled, not affinity purified (Homo sapiens) (UniProt P19525); assay: pulldown; details: only 4% of labeled protein able to bind dsRNA
[2] = target: T1, PKR dsRBD (MAGIC factor), Alexa Fluor 488-labeled, affinity purified on dsRNA-agarose (Homo sapiens, UniProt P19525 SEQ:22-205); assay: EMSA; stated to bind specifically to dsRNA; gel result only in figure; details: tags: N-terminal His6; Alexa Fluor 488 on primary amines; label: Alexa Fluor 647
T1 chain: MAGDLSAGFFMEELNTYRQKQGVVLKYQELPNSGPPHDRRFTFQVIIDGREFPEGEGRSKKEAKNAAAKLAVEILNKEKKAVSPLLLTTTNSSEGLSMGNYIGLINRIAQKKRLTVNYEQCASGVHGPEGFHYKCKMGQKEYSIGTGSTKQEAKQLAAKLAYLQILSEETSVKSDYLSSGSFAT
Text: (§1) MAGIC factor was fluorescently-labeled with Alexa Fluor 488 and then reacted with dsRNA-coupled agarose beads to separate binding, functional protein (eluate) from non-binding, non-functional protein (flow and wash fractions). […] Unlabeled and unpurified fluorescent MAGIC factor and affinity purified fluorescent MAGIC factor were reacted with Alexa Fluor 647-labeled dsRNA and ssRNA and run on a native gel. The gel was visualized in the RNA channel (Ex. 633 nm/Em. 670/30 nm BP), protein channel (Ex. 488 nm/Em. 526 nm SP) and FRET channel (Ex. 488 nm/Em. 670/30nm). […] The dashed lines represent the cutoff after which increasing concentrations of only unpurified MAGIC factor were reacted with dsRNA.

[3] = target: T1, PKR dsRBD (MAGIC factor), Alexa Fluor …; assay: EMSA; Kd value only in figure; about 30-fold higher affinity than unpurified labeled protein; details: tags: N-terminal His6; Alexa Fluor 488 on primary amines; label: Alexa Fluor 647
Text: as §1

## dsRNA coupled to agarose beads
[1]
  binding signal: 4%

B1: EMSA ssRNA (ssRNA)
RNA: GAGUCCUUCCACGAUACC
modifications: aminoallyl-uridine; sequence printed with T, transcribed as RNA
[2]
  binding result: no binding

B2: EMSA dsRNA (dsRNA)
RNA 1: GAGUCCUUCCACGAUACC
RNA 2: GGUAUCGUGGAAGGACUC
modifications: aminoallyl-uridine in labeled strand; sequence printed with T, transcribed as RNA
[3]
  binding result: binds
